Measurements from article PMC12416549 (2024).

T1: TNFR1 (Homo sapiens, UniProt P19438)
T1 chain: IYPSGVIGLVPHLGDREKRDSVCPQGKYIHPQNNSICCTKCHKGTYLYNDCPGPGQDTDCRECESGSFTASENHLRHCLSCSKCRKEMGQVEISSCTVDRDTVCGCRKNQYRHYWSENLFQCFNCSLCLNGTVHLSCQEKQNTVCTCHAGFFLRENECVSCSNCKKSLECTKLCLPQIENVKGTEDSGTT

B1: A83N (designed binder)
chain: MTLQELLREEALRRAEAEAFRYALELLAEKFPEQKEYLLDLAEEIESQIRSLSGVDVEDVRKFLDKEWAWVKELLAEHPAELNEVEAARAARLAELRAEVEAKVAA
B2: A69V (designed binder)
chain: MTLQELLREEALRRAEAEAFRYALELLAEKFPEQKEYLLDLAEEIESQIRSLSGVDVEDVRKFLDKEWVWVKELLAEHPAELAEVEAARAARLAELRAEVEAKVAA
B3: A83V (designed binder)
chain: MTLQELLREEALRRAEAEAFRYALELLAEKFPEQKEYLLDLAEEIESQIRSLSGVDVEDVRKFLDKEWAWVKELLAEHPAELVEVEAARAARLAELRAEVEAKVAA
B4: Q4R (designed binder)
chain: MTLRELLREEALRRAEAEAFRYALELLAEKFPEQKEYLLDLAEEIESQIRSLSGVDVEDVRKFLDKEWAWVKELLAEHPAELAEVEAARAARLAELRAEVEAKVAA
B5: A42N (designed binder)
chain: MTLQELLREEALRRAEAEAFRYALELLAEKFPEQKEYLLDLNEEIESQIRSLSGVDVEDVRKFLDKEWAWVKELLAEHPAELAEVEAARAARLAELRAEVEAKVAA
B6: A83R (designed binder)
chain: MTLQELLREEALRRAEAEAFRYALELLAEKFPEQKEYLLDLAEEIESQIRSLSGVDVEDVRKFLDKEWAWVKELLAEHPAELREVEAARAARLAELRAEVEAKVAA
B7: L96N (designed binder)
chain: MTLQELLREEALRRAEAEAFRYALELLAEKFPEQKEYLLDLAEEIESQIRSLSGVDVEDVRKFLDKEWAWVKELLAEHPAELAEVEAARAARLAENRAEVEAKVAA
B8: K72L (designed binder)
chain: MTLQELLREEALRRAEAEAFRYALELLAEKFPEQKEYLLDLAEEIESQIRSLSGVDVEDVRKFLDKEWAWVLELLAEHPAELAEVEAARAARLAELRAEVEAKVAA
B9: A42K (designed binder)
chain: MTLQELLREEALRRAEAEAFRYALELLAEKFPEQKEYLLDLKEEIESQIRSLSGVDVEDVRKFLDKEWAWVKELLAEHPAELAEVEAARAARLAELRAEVEAKVAA
B10: L39V (designed binder)
chain: MTLQELLREEALRRAEAEAFRYALELLAEKFPEQKEYLVDLAEEIESQIRSLSGVDVEDVRKFLDKEWAWVKELLAEHPAELAEVEAARAARLAELRAEVEAKVAA
B11: L24T (designed binder)
chain: MTLQELLREEALRRAEAEAFRYATELLAEKFPEQKEYLLDLAEEIESQIRSLSGVDVEDVRKFLDKEWAWVKELLAEHPAELAEVEAARAARLAELRAEVEAKVAA
B12: A106Q (designed binder)
chain: MTLQELLREEALRRAEAEAFRYALELLAEKFPEQKEYLLDLAEEIESQIRSLSGVDVEDVRKFLDKEWAWVKELLAEHPAELAEVEAARAARLAELRAEVEAKVAQ
B13: L41P (designed binder)
chain: MTLQELLREEALRRAEAEAFRYALELLAEKFPEQKEYLLDPAEEIESQIRSLSGVDVEDVRKFLDKEWAWVKELLAEHPAELAEVEAARAARLAELRAEVEAKVAA
B14: A28W (designed binder)
chain: MTLQELLREEALRRAEAEAFRYALELLWEKFPEQKEYLLDLAEEIESQIRSLSGVDVEDVRKFLDKEWAWVKELLAEHPAELAEVEAARAARLAELRAEVEAKVAA
B15: Y37Q (designed binder)
chain: MTLQELLREEALRRAEAEAFRYALELLAEKFPEQKEQLLDLAEEIESQIRSLSGVDVEDVRKFLDKEWAWVKELLAEHPAELAEVEAARAARLAELRAEVEAKVAA
B16: V71S (designed binder)
chain: MTLQELLREEALRRAEAEAFRYALELLAEKFPEQKEYLLDLAEEIESQIRSLSGVDVEDVRKFLDKEWAWSKELLAEHPAELAEVEAARAARLAELRAEVEAKVAA
B17: E10R (designed binder)
chain: MTLQELLRERALRRAEAEAFRYALELLAEKFPEQKEYLLDLAEEIESQIRSLSGVDVEDVRKFLDKEWAWVKELLAEHPAELAEVEAARAARLAELRAEVEAKVAA
B18: A19H (designed binder)
chain: MTLQELLREEALRRAEAEHFRYALELLAEKFPEQKEYLLDLAEEIESQIRSLSGVDVEDVRKFLDKEWAWVKELLAEHPAELAEVEAARAARLAELRAEVEAKVAA
B19: A19W (designed binder)
chain: MTLQELLREEALRRAEAEWFRYALELLAEKFPEQKEYLLDLAEEIESQIRSLSGVDVEDVRKFLDKEWAWVKELLAEHPAELAEVEAARAARLAELRAEVEAKVAA
B20: L38E (designed binder)
chain: MTLQELLREEALRRAEAEAFRYALELLAEKFPEQKEYELDLAEEIESQIRSLSGVDVEDVRKFLDKEWAWVKELLAEHPAELAEVEAARAARLAELRAEVEAKVAA
B21: R50Q (designed binder)
chain: MTLQELLREEALRRAEAEAFRYALELLAEKFPEQKEYLLDLAEEIESQIQSLSGVDVEDVRKFLDKEWAWVKELLAEHPAELAEVEAARAARLAELRAEVEAKVAA
B22: D56E (designed binder)
chain: MTLQELLREEALRRAEAEAFRYALELLAEKFPEQKEYLLDLAEEIESQIRSLSGVEVEDVRKFLDKEWAWVKELLAEHPAELAEVEAARAARLAELRAEVEAKVAA
B23: E25L (designed binder)
chain: MTLQELLREEALRRAEAEAFRYALLLLAEKFPEQKEYLLDLAEEIESQIRSLSGVDVEDVRKFLDKEWAWVKELLAEHPAELAEVEAARAARLAELRAEVEAKVAA
B24: P79F (designed binder)
chain: MTLQELLREEALRRAEAEAFRYALELLAEKFPEQKEYLLDLAEEIESQIRSLSGVDVEDVRKFLDKEWAWVKELLAEHFAELAEVEAARAARLAELRAEVEAKVAA
B25: D40I (designed binder)
chain: MTLQELLREEALRRAEAEAFRYALELLAEKFPEQKEYLLILAEEIESQIRSLSGVDVEDVRKFLDKEWAWVKELLAEHPAELAEVEAARAARLAELRAEVEAKVAA
B26: V57Q (designed binder)
chain: MTLQELLREEALRRAEAEAFRYALELLAEKFPEQKEYLLDLAEEIESQIRSLSGVDQEDVRKFLDKEWAWVKELLAEHPAELAEVEAARAARLAELRAEVEAKVAA
B27: L74K (designed binder)
chain: MTLQELLREEALRRAEAEAFRYALELLAEKFPEQKEYLLDLAEEIESQIRSLSGVDVEDVRKFLDKEWAWVKEKLAEHPAELAEVEAARAARLAELRAEVEAKVAA
B28: L64I (designed binder)
chain: MTLQELLREEALRRAEAEAFRYALELLAEKFPEQKEYLLDLAEEIESQIRSLSGVDVEDVRKFIDKEWAWVKELLAEHPAELAEVEAARAARLAELRAEVEAKVAA
B29: A94D (designed binder)
chain: MTLQELLREEALRRAEAEAFRYALELLAEKFPEQKEYLLDLAEEIESQIRSLSGVDVEDVRKFLDKEWAWVKELLAEHPAELAEVEAARAARLDELRAEVEAKVAA
B30: A98I (designed binder)
chain: MTLQELLREEALRRAEAEAFRYALELLAEKFPEQKEYLLDLAEEIESQIRSLSGVDVEDVRKFLDKEWAWVKELLAEHPAELAEVEAARAARLAELRIEVEAKVAA
B31: L64M (designed binder)
chain: MTLQELLREEALRRAEAEAFRYALELLAEKFPEQKEYLLDLAEEIESQIRSLSGVDVEDVRKFMDKEWAWVKELLAEHPAELAEVEAARAARLAELRAEVEAKVAA
B32: V60D (designed binder)
chain: MTLQELLREEALRRAEAEAFRYALELLAEKFPEQKEYLLDLAEEIESQIRSLSGVDVEDDRKFLDKEWAWVKELLAEHPAELAEVEAARAARLAELRAEVEAKVAA
B33: I45K (designed binder)
chain: MTLQELLREEALRRAEAEAFRYALELLAEKFPEQKEYLLDLAEEKESQIRSLSGVDVEDVRKFLDKEWAWVKELLAEHPAELAEVEAARAARLAELRAEVEAKVAA
B34: L7K (designed binder)
chain: MTLQELKREEALRRAEAEAFRYALELLAEKFPEQKEYLLDLAEEIESQIRSLSGVDVEDVRKFLDKEWAWVKELLAEHPAELAEVEAARAARLAELRAEVEAKVAA
B35: L6D (designed binder)
chain: MTLQEDLREEALRRAEAEAFRYALELLAEKFPEQKEYLLDLAEEIESQIRSLSGVDVEDVRKFLDKEWAWVKELLAEHPAELAEVEAARAARLAELRAEVEAKVAA

Molecular target: T1, TNFR1
Experiment: yeast display SC50

Binder | apparent Kd (screen) [nM]
B1 | 0.653
B2 | 0.653
B3 | 0.718
B4 | 0.49
B5 | 0.869
B6 | 0.49
B7 | 0.446
B8 | 0.79
B9 | 3.99
B10 | 0.653
B11 | 0.446
B12 | 0.142
B13 | 1.27
B14 | 10.4
B15 | 8.56
B16 | 2.48
B17 | 10.4
B18 | 0.718

Binder | apparent Kd (screen) [nM]
B19 | 9.41
B20 | 10.4
B21 | 0.49
B22 | 0.593
B23 | 0.539
B24 | 0.653
B25 | 13.8
B26 | 0.869
B27 | 13.8
B28 | 1.16
B29 | 0.593
B30 | 0.653
B31 | 0.653
B32 | 1.05
B33 | 3.99
B34 | 16.7
B35 | 1.27
